US20180298070A1, “PEPTIDE COMPOUND” (Takeda Pharmaceutical Company Limited, published 2018)
Starred links: 1 amine or outer side, 2 acyl side, 3 side chain; linkers in the order of their positions; H or OH if unused. Non-standard residues stand in square brackets, D forms with d. Groups on a side chain read outwards from the residue. Primed or numbered codes have the meaning given here. No end group written: not given here. *: point of attachment. C20 diacid = O=C(O)CCCCCCCCCCCCCCCCCCC(=O)*; γGlu = O=C(O)[C@H](CCC(=O)[*:2])N[*:1]; NMeY = CN[C@@H](Cc1ccc(O)cc1)C(=O)O; αMeF = C[C@](N)(Cc1ccccc1)C(=O)O; Lauroyl = CCCCCCCCCCCC(=O)*; dIva = CC[C@@](C)(N)C(=O)O; Iva = CC[C@](C)(N)C(=O)O; PEG2′ = not defined here; PEG3′ = not defined here; Aib = CC(C)(N)C(=O)O

T1: human GIPR (human), P48546
T1 chain: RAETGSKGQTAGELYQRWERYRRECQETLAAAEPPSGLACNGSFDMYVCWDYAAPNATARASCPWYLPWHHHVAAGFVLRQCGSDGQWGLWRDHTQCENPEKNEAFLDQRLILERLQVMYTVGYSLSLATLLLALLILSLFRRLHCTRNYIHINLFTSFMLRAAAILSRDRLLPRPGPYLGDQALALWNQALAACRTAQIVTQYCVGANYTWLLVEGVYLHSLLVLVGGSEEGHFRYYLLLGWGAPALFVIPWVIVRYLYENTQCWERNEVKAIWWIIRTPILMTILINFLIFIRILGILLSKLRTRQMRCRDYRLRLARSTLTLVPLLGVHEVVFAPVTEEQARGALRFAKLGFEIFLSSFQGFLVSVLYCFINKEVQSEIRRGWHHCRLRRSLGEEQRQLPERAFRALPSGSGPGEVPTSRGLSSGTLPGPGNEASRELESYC

T2: human GLP-1R (human), P43220
T2 chain: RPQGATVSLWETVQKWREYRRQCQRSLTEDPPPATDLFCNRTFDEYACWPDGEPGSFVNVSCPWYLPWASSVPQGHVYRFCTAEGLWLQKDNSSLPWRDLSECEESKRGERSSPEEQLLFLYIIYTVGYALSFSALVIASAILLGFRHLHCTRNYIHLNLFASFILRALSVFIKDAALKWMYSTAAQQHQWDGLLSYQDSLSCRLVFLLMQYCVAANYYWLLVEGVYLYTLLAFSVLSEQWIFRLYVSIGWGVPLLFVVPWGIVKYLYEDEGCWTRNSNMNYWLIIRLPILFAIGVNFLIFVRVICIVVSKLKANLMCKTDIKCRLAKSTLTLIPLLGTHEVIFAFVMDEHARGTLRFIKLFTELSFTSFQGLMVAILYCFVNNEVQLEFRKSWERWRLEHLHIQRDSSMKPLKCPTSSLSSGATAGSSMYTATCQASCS

B1: Compound 237 (peptide)
peptide: Y[Aib]EGTFISDYSIALDRK([PEG3′-PEG3′-γGlu-C20 diacid])HQQDFVNWLLAQRPSSGAPPPS
modifications: not fully specified (C-terminus); ends and bridges not checked
B2: Compound 215 (peptide)
peptide: Y[Aib]EGTFISDYSK([PEG2′-Lauroyl])ALDR[Aib]HQ[Aib]NFVNW[Iva]LAQRPSSGAPPPS
modifications: not fully specified (C-terminus); ends and bridges not checked
B3: Compound 72 (peptide)
peptide: [NMeY][Aib]EGTFISDYSIALDRIAQ[Aib]N[αMeF]VNWLLAQRPSSGAPPPSR
modifications: not fully specified (C-terminus); ends and bridges not checked
B4: Compound 238 (peptide)
peptide: Y[Aib]EGTFISDYSK([PEG3′-PEG3′-γGlu-C20 diacid])ALDRIHQQDFVNWLLAQRPSSGAPPPS
modifications: not fully specified (C-terminus); ends and bridges not checked
B5: Compound 71 (peptide)
peptide: [NMeY][Aib]EGTFISDYSIALDRIAQQS[αMeF]VNWLLAQRPSSGAPPPSR
modifications: not fully specified (C-terminus); ends and bridges not checked
B6: Compound 221 (peptide)
peptide: Y[Aib]EGTFISDYSK([PEG2′-Lauroyl])ALDRIAQQS[αMeF]VNW[Iva]LAQRPSSGAPPPS
modifications: not fully specified (C-terminus); ends and bridges not checked
B7: Compound 232 (peptide)
peptide: Y[Aib]EGTFISDYSIALDRK([PEG(2)-dodec])HQQDFVNWLLAQRPSSGAPPPS
modifications: not fully specified (C-terminus); ends and bridges not checked
B8: Compound 79 (peptide)
peptide: [NMeY][Aib]EGTFISDYSI[dIva]LDR[Aib]AQQDFVNWLLAQRPSSGAPPPSR
modifications: ends and bridges not checked
B9: Compound 222 (peptide)
peptide: Y[Aib]EGTFISDYSK([PEG(2)-Lauroyl])ALDRIHQQSFVNW[Iva]LAQRPSSGAPPPS
modifications: not fully specified (C-terminus); ends and bridges not checked
B10: Compound 240 (peptide)
peptide: Y[Aib]EGTFISDYSIALDRK([PEG(2)-Pal])HQ[Aib]NFVNW[Iva]LAQRPSSGAPPPS
modifications: not fully specified (C-terminus); ends and bridges not checked
B11: Compound 204 (peptide)
peptide: Y[Aib]EGTFISDYSK([PEG(2)-Lauroyl])ALDRIAQ[Aib]NFVNWLLAQRPSSGAPPPS
modifications: ends and bridges not checked
B12: Compound 234 (peptide)
peptide: Y[Aib]EGTFISDYSIALDRK([PEG(2)-C20 diacid])HQQDFVNWLLAQRPSSGAPPPS
modifications: not fully specified (C-terminus); ends and bridges not checked

Target: T1, human GIPR (human), P48546
Assay: not given

| Binder | Agonist activity (EC50, M) [M] |
| --- | --- |
| B1 | 1.6e-10 |
| B2 | 2.8e-12 |
| B3 | 2.6e-12 |
| B4 | 8.3e-11 |
| B5 | 2.5e-12 |
| B6 | 7.1e-12 |
| B7 | 3.2e-12 |
| B8 | 1.1e-12 |
| B9 | 3.7e-12 |
| B10 | 3e-12 |
| B11 | 8.1e-12 |
| B12 | 1.5e-10 |

Target: T2, human GLP-1R (human), P43220
Assay: not given

| Binder | Agonist activity (EC50, M) [M] |
| --- | --- |
| B1 | > 1e-06 |
| B2 | 1.5e-07 |
| B3 | 2.3e-07 |
| B4 | > 1e-06 |
| B5 | > 1e-06 |
| B6 | > 1e-06 |
| B7 | > 1e-06 |
| B8 | > 1e-06 |
| B9 | > 1e-06 |
| B10 | 5.8e-09 |
| B11 | 9.5e-09 |
| B12 | > 1e-06 |

Target: T1, human GIPR (human), P48546
Assay: [125I]GIP displacement, hGIPR VLP

| Binder | IC50 [nM] |
| --- | --- |
| B1 | 110 |
| B2 | 2.8 |
| B3 | 2.7 |
| B4 | 43 |
| B5 | 2.1 |
| B6 | 3 |
| B7 | 2.1 |
| B8 | 1.2 |
| B9 | 2.9 |
| B10 | 2.4 |
| B11 | 2.6 |
| B12 | 82 |
